The target in this experiment is NES-Venus-miniGs. Kind of experiment: BRET (NanoLuc-labelled receptor and Venus-labelled mini-Gs recruitment). The following applies: three independent experiments; for percent of parent: Emax of the DMCH concentration-response; for other: pEC50: pEC50 of the agonist DMCH for mini-Gs recruitment.

For the substance “mTAAR7f with N-terminal twin-strep tag and SNAP-tag and C-terminal nanoluc (wild type) (from UniProt Q5QD08) V315A”, the percent of parent was determined as 0%. For “mTAAR7f with N-terminal twin-strep tag and SNAP-tag and C-terminal nanoluc (wild type) (from UniProt Q5QD08) Y289A”, the percent of parent amounted to 47% and the other: pEC50 was 4.2. For “mTAAR7f with N-terminal twin-strep tag and SNAP-tag and C-terminal nanoluc (wild type) (from UniProt Q5QD08) Y132A”, in that order: 17% and 3.6. With “mTAAR7f with N-terminal twin-strep tag and SNAP-tag and C-terminal nanoluc (wild type) (from UniProt Q5QD08) C131A”, the percent of parent was determined as 60% and the other: pEC50 turned out to be 4.9. For the substance “mTAAR7f with N-terminal twin-strep tag and SNAP-tag and C-terminal nanoluc (wild type) (from UniProt Q5QD08) D127A”, the percent of parent is 0%.

As to “mTAAR7f with N-terminal twin-strep tag and SNAP-tag and C-terminal nanoluc (wild type) (from UniProt Q5QD08) W286Y”, the percent of parent turned out to be 24% and the other: pEC50 amounted to 5.3.

For the origin of these results see publication doi:10.1101/2023.07.07.547762.
